Assay results taken from patent US11994512B2, “Single-cell genomic methods to generate ex vivo cell systems that recapitulate in vivo biology with improved fidelity” (Massachusetts Institute of Technology, priority 2018, dated 2024).

B1: Q64669 (protein, UniProt Q64669 1-274, looked up)
chain: MAARRALIVLAHSEKTSFNYAMKEAAVEALKKRGWEVLESDLYAMNFNPIISRNDITGELKDSKNFQYPSESSLAYKEGRLSPDIVAEHKKLEAADLVIFQFPLQWFGVPAILKGWFERVLVAGFAYTYAAMYDNGPFQNKKTLLSITTGGSGSMYSLQGVHGDMNVILWPIQSGILRFCGFQVLEPQLVYSIGHTPPDARMQILEGWKKRLETVWEETPLYFAPSSLFDLNFQAGFLMKKEVQEEQKKNKFGLSVGHHLGKSIPADNQIKARK
modifications: full-length
B2: Q64176 (protein, UniProt Q64176 1-562, looked up)
chain: MCLSALILVSLAAFTAGAGHPSSPPMVDTVQGKVLGKYISLEGFTQPVAVFLGVPFAKPPLGSLRFAPPQPAEPWSSVKNATSYPPMCFQDPVTGQIVNDLLTNRKEKIPLQFSEDCLYLNIYTPADLTKSDRLPVMVWIHGGGLVLGGASTYDGLVLSTHENVVVVVIQYRLGIWGFFSTGDEHSRGNWGHLDQVAALHWVQDNIAKFGGDPGSVTIFGESAGGESVSVLVLSPLAKNLFQRAISESGVALTAGLVKKNTRPLAEKIAVISGCKNTTSAAMVHCLRQKTEEELLGTTLKLNLFKLDLHGDSRQSHPFVPTVLDGVLLPKMPEEILAEKNFNTVPYIVGINKQEFGWILPTMMNYPPSDVKLDQMTAMSLLKKSSFLLNLPEDAIAVAIEKYLRDKDYTGRNKDQLLELIGDVVFGVPSVIVSRGHRDAGAPTYMYEFQYSPSFSSEMKPDTVVGDHGDEIYSVFGAPILRGGTSEEEINLSKMMMKFWANFARNGNPNGQGLPHWPEYDQKEGYLQIGATTQQAQKLKEKEVAFWTELLAKKQLPTEHTEL
modifications: full-length
B3: Q64338 (protein, UniProt Q64338 1-706, looked up)
chain: MESPTKEIEEFESNSLKHLQPEQIEKIWLRLRGLRKYKKTSQRLRSLVKQLERGEASVVDLKKNLEYAATVLESVYIDETRRLLDTEDELSDIQSDAVPSEVRDWLASTFTRQMGMMLRRSDEKPRFKSIVHAVQAGIFVERMYRRTSNMVGLSYPPAVIDALKDVDTWSFDVFSLNEASGDHALKFIFYELLTRYDLISRFKIPISALVSFVEALEVGYSKHKNPYHNLMHAADVTQTVHYLLYKTGVANWLTELEIFAIIFSAAIHDYEHTGTTNNFHIQTRSDPAILYNDRSVLENHHLSAAYRLLQEDEEMNILVNLSKDDWREFRTLVIEMVMATDMSCHFQQIKAMKTALQQPEAIEKPKALSLMLHTADISHPAKAWDLHHRWTMSLLEEFFRQGDREAELGLPFSPLCDRKSTMVAQSQVGFIDFIVEPTFTVLTDMTEKIVSPLIDESSQTGGTGQRRSSLNSINSSDAKRSGVKSSGSDGSAPINNSVIPVDYKSFKATWTEVVQINRERWRAKVPKEEKAKKEAEEKARLAAEEKQKEMEAKSQAEQGTTSKGEKKTSGEAKSQVNGTRKGDNPRGKNSKGEKAGEKQQNGDLKDGKNKADKKDHSNTGNESKKTDGTKKRSHGSPAPSTSSTSRITLPVIKPPLRHFKRPAYASSSYAPSVPKKTDDHPVRYKMLDQRIKMKKIQNISHHWNKK
modifications: full-length
B4: Q6J9G1 (protein, UniProt Q6J9G1 1-429, looked up)
chain: MGEKGHLSRVLLECSLSDKLCVVREKQYEVIIVPALLVGGFLILLAIILWLFIRGQRSQRQSPGPRGTASVPASRGRSQEAAGHGEKVLLPLKETSVEGFLRAATPRLAKLQVPREQLLEVLEQIHSGSCGTLYHATMTTKDHPKPKSVVLKALEDPVGLQEVQDFIGRIQFYQYLGKHKNLVQLEGCCTERLPLYMMLEDVVPGDLLSFLWTCRRDVMTMDGLLYDLTEKQIYHIGKQILLALEFLQEKHLFHGDVAARNILIQSDLTPKLCHLGLAYEVHAHGAISSARSSTIPLKWLAPERLLLRPASIRGDIWSFGILLYEMVTLGAPPYPEVPPTSILQYLQRKKIMKRPSSCSHAMYNIMKCCWRWSEDSRPLLGQLLQRLEAASRSADDKAVLQVPELVVPELYADVAGIRAESISYSFSVL
modifications: full-length
B5: Q6DI86 (protein, UniProt Q6DI86 1-829, looked up)
chain: MFRLRSISLLSWRAFPLRPFSCESLITQMQKCTNEEQVFDLIETNTATLSEQQVGCAFNVLWQFQKQKTVLEKNVDHVRNHPQFLTLCSITTNHIPAMSDATLVDVLYSIKQFAVESHHPLIEALVTEAWKRLERFDTNVLSIFSTCLADQHLYFSPLMGKIADIVNRRLETIQDLRALSVLMVSISSLISPCFQERLVIRTELLFDTVNSSKVNIARRILLFLRNVKYSHYPLLERCNQVFIRNMSHLDLESISKILNLYQFLQFHSFEFVEAARGRLAEMTLPSDHPESFVRLFAALGPVARPEIKKQLKSTILLLSEELSSQQALIVLGAMEDMESRNSHLLKKIVSVLYKHLDNYKSIELLKIIQALTFLHFQSKELFMKLRELLLSRLEASVIPSEISVLVSALSMLPHPHLSETAVSRIEAVLPQCDFRELNDLVVYLMRWIQSDLVCLASTTGKQLDLLQKLDQLGRHRLQQSTNLDLLWEELKSLKGEWLHESLVEESIAALLRFMDEIDYSNIAKVASFLSRTNYLNTLLLDRIASVAIQQVEKIHPFSVLAIILPFSILNYDPPQKDEFFGACVQCCNSYLGTLDPGTLVFLGFSLAVLEYFPEDLLKKMFNIEFLARLDSQLEILPSSLSARIQFRLMELNRAVCLECPELQVPWFHDRFCQRQFNKDTGVMNGAQQQIYKMLAEVLGGHQCVKPSALSPYYHTVGFECILDKRKKPLPYESHSIAPRKSLGMHWDSRVEPRLPPEAERIAIELLDVRAFCSNIPHLKGKSAMKKRHLEILGYRVIQIPYFEWNSMAMSTKDARMDYLREHLFGEGKS
modifications: full-length
B6: Q62431 (protein, UniProt Q62431 1-601, looked up)
chain: MKLQAVMETLIQRQQRARQELEARQAPPPPPPEPTGVRARTTMTDEDREPENARMHRTQMAALAAMRAAAAGLGHPSSPGGSEDGPPISGDEDTAREGTLSSPALHGSVLEGAGHAEGDRHLMDVGSDDDDTKSKWEEQELEELGEEEEEEEEEDDFEEEEEEEEGLGPPESASLGTAGLFTRKAPPAQAFRGDGGPRMLSGPERLGPGPAHPSHMASQMPPPDHGDWTFEEQFKQLYELDADPKRKEFLDDLFSFMQKRGTPVNRIPIMAKQVLDLFMLYVLVTEKGGLVEVINKKLWREITKGLNLPTSITSAAFTLRTQYMKYLYPYECERRGLSSPNELQAAIDSNRREGRRQSFGGSLFAYSPSGAHSMLPSPKLPVTPLGLAASTNGSSITPAPKIKKEEDSAIPITVPGRLPVSLAGHPVVAAQAAAVQAAAAQAAVAAQAAALEQLREKLESTEPPEKKMALVADEQQRLMQRAVQQSFLAMTAQLPMNIRINSQASESRQDSAVSLTSANGSNSISMSVEMNGIVYTGVLFAQPPPPTAPSAPGKGGVSSIGTNTTTGSRTGASGSTVSGGQVGLPGVSTPTMSSTSNNSLP
modifications: full-length

Test system: intracellular proteome of ENR+CD and ENR organoids
Assay: LC-MS/MS TMT proteomics of ENR+CD versus ENR organoids
Assay type: cell-based, C57BL/6 mice
Conditions: ENR+CD versus ENR organoids, sample pairs in aggregate (n=4, 2 technical replicates from two biological donors)

How did the “Average logFC” value turn out when B1 was run?
Its value is −1.573.

B2 was tested. Which “Average logFC” value did it give?
Its value is −1.21.

With B3 as the molecule, how does the “Average logFC” value read?
Its value is 1.157.

Which “Average logFC” value does the source give for B4 here?
Its value is 1.195.

With B5 as the molecule, how does the “Average logFC” value read?
Its value is 1.459.

Which “Average logFC” value does the source give for B6 here?
Its value is 1.251.

Same assay, conditions: protein abundance ratio ENR+CD versus ENR organoids, sample pair M1-1; LC-MS/MS TMT proteomics

B1 was tested. Which “M1-1 Log2 Median Normalized” value did it give?
Its value is −1.603.

Which “M1-1 Log2 Median Normalized” value does the source give for B2 here?
The value was −1.21.

With B3 as the molecule, how does the “M1-1 Log2 Median Normalized” value read?
Its value is 0.73.

For B4, which “M1-1 Log2 Median Normalized” value is on record?
Its value is 1.631.

For B5, which “M1-1 Log2 Median Normalized” value is on record?
The value was 1.46.

For B6, which “M1-1 Log2 Median Normalized” value is on record?
The value was 1.672.

Same assay, conditions: protein abundance ratio ENR+CD versus ENR organoids, sample pair M1-2; LC-MS/MS TMT proteomics

B1 was tested. Which “M1-2 Log2 Median Normalized” value did it give?
Its value is −2.001.

For B2, which “M1-2 Log2 Median Normalized” value is on record?
Its value is −1.557.

With B3 as the molecule, how does the “M1-2 Log2 Median Normalized” value read?
Its value is 0.722.

With B4 as the molecule, how does the “M1-2 Log2 Median Normalized” value read?
The value was 1.194.

B5 was tested. Which “M1-2 Log2 Median Normalized” value did it give?
The value was 1.066.

How did the “M1-2 Log2 Median Normalized” value turn out when B6 was run?
The value was 1.343.

Same assay, conditions: protein abundance ratio ENR+CD versus ENR organoids, sample pair M2-1; LC-MS/MS TMT proteomics

How did the “M2-1 Log2 Median Normalized” value turn out when B1 was run?
Its value is −1.5715.

For B2, which “M2-1 Log2 Median Normalized” value is on record?
The value was −1.2065.

Which “M2-1 Log2 Median Normalized” value does the source give for B3 here?
Its value is 1.3705.

For B4, which “M2-1 Log2 Median Normalized” value is on record?
The value was 0.7015.

Which “M2-1 Log2 Median Normalized” value does the source give for B5 here?
The value was 1.4225.

Which “M2-1 Log2 Median Normalized” value does the source give for B6 here?
The value was 1.2465.

Same assay, conditions: protein abundance ratio ENR+CD versus ENR organoids, sample pair M2-2; LC-MS/MS TMT proteomics

With B1 as the molecule, how does the “M2-2 Log2 Median Normalized” value read?
Its value is −0.844.

For B2, which “M2-2 Log2 Median Normalized” value is on record?
Its value is −1.062.

B3 was tested. Which “M2-2 Log2 Median Normalized” value did it give?
The value was 1.805.

How did the “M2-2 Log2 Median Normalized” value turn out when B4 was run?
The value was 1.233.

How did the “M2-2 Log2 Median Normalized” value turn out when B5 was run?
The value was 2.251.

How did the “M2-2 Log2 Median Normalized” value turn out when B6 was run?
The value was 0.741.

Same assay, conditions: up = enriched in ENR+CD, down = enriched in ENR; FDR<0.05 and log fold change cut-off

Which change does the source give for B1 here?
The change was “down”.

B2 was tested. Which change did it give?
The change was “down”.

B3 was tested. Which change did it give?
The change was “up”.

B4 was tested. Which change did it give?
The change was “up”.

With B5 as the molecule, how does the change read?
The change was “up”.

Which change does the source give for B6 here?
The change was “up”.
